Source: patent US20200165344A1 (DRAGONFLY THERAPEUTICS, published 2020)

T1: recombinant cynomolgus NKG2D-Fc (cynomolgus; human, UniProt P61252 73-216)
T1 construct: extracellular domain; also called cynomolgus NKG2D-Fc fusion protein; not shown: human IgG1 Fc domain
T1 sequence (looked up): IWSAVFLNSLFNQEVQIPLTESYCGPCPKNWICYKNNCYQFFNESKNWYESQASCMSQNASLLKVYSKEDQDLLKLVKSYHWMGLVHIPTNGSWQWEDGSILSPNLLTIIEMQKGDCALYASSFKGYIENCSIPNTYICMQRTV

T2: recombinant human NKG2D-Fc (human, UniProt P26718 73-216)
T2 construct: extracellular domain; also called human NKG2D-Fc fusion protein; NKG2D-Fc-biotin; not shown: human IgG1 Fc domain
T2 sequence (looked up): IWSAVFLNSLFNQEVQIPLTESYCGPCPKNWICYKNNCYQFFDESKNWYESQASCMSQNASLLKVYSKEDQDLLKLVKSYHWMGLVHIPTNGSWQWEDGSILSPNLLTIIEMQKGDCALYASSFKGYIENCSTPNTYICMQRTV

T3: recombinant mouse NKG2D-Fc (mouse; human, UniProt O54709 90-232)
T3 construct: extracellular domain; also called mouse NKG2D-Fc fusion protein; Mouse NKG2D-Fc-biotin; not shown: human IgG1 Fc domain
T3 sequence (looked up): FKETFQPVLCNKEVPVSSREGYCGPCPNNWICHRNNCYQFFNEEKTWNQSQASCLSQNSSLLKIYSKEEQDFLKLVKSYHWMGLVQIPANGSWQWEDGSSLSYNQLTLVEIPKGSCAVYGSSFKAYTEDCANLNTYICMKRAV


Columns and labels:
Experiment in all cases: ELISA, NKG2D-Fc coated
[1] = biological target: T1, recombinant cynomolgus NKG2D-Fc
[2] = biological target: T2, recombinant human NKG2D-Fc
[3] = biological target: T3, recombinant mouse NKG2D-Fc

Binder	binding result [1]	binding result [2]	binding result [3]
ADI-27705 (antibody, V domains shown) VH: QVQLQQWGAGLLKPSETLSLTCAVYGGSFSGYYWSWIRQPPGKGLEWIGEIDHSGSTNYNPSLKSRVTISVDTSKNQFSLKLSSVTAADTAVYYCARARGPWSFDPWGQGTLVTVSS VL: not shown	binds	binds	binds
ADI-29403 (antibody, V domains shown) VH: QVQLQQWGAGLLKPSETLSLTCAVYGGSFSGYYWSWIRQPPGKGLEWIGEIDHSGSTNYNPSLKSRVTISVDTSKNQFSLKLSSVTAADTAVYYCARARGPWSFDPWGQGTLVTVSS VL: not shown	binds	binds	binds
ADI-27741 (antibody, V domains shown) VH: QVQLQQWGAGLLKPSETLSLTCAVYGGSFSGYYWSWIRQPPGKGLEWIGEIDHSGSTNYNPSLKSRVTISVDTSKNQFSLKLSSVTAADTAVYYCARARGPWSFDPWGQGTLVTVSS VL: DIQMTQSPSTLSASVGDRVTITCRASQSIGSWLAWYQQKPGKAPKLLIYKASSLESGVPSRFSGSGSGTEFTLTISSLQPDDFATYYCQQSNSYYTFGGGTKVEIK	binds	binds	binds
ADI-29421 (antibody, V domains shown) VH: QVQLQQWGAGLLKPSETLSLTCAVYGGSFSGYYWSWIRQPPGKGLEWIGEIDHSGSTNYNPSLKSRVTISVDTSKNQFSLKLSSVTAADTAVYYCARARGPWSFDPWGQGTLVTVSS VL: not shown	binds	binds	binds
ADI-29426 (antibody, V domains shown) VH: QVQLQQWGAGLLKPSETLSLTCAVYGGSFSGYYWSWIRQPPGKGLEWIGEIDHSGSTNYNPSLKSRVTISVDTSKNQFSLKLSSVTAADTAVYYCARARGPWSFDPWGQGTLVTVSS VL: DIQMTQSPSTLSASVGDRVTITCRASQSIGSWLAWYQQKPGKAPKLLIYKASSLESGVPSRFSGSGSGTEFTLTISSLQPDDFATYYCQQYHSFPTFGGGTKVEIK	binds	binds	binds
ADI-28226 (antibody, V domains shown, also called C26) VH: QVQLQQWGAGLLKPSETLSLTCAVYGGSFSGYYWSWIRQPPGKGLEWIGEIDHSGSTNYNPSLKSRVTISVDTSKNQFSLKLSSVTAADTAVYYCARARGPWSFDPWGQGTLVTVSS VL: DIQMTQSPSTLSASVGDRVTITCRASQSISSWLAWYQQKPGKAPKLLIYKASSLESGVPSRFSGSGSGTEFTLTISSLQPDDFATYYCQQYGSFPITFGGGTKVEIK	binds	binds	binds
ADI-29405 (antibody, V domains shown) VH: QVQLQQWGAGLLKPSETLSLTCAVYGGSFSGYYWSWIRQPPGKGLEWIGEIDHSGSTNYNPSLKSRVTISVDTSKNQFSLKLSSVTAADTAVYYCARARGPWSFDPWGQGTLVTVSS VL: DIQMTQSPSTLSASVGDRVTITCRASQSISSWLAWYQQKPGKAPKLLIYKASSLESGVPSRFSGSGSGTEFTLTISSLQPDDFATYYCQQYGSFPTFGGGTKVEIK	binds	binds	binds
ADI-29429 (antibody, V domains shown) VH: QVQLQQWGAGLLKPSETLSLTCAVYGGSFSGYYWSWIRQPPGKGLEWIGEIDHSGSTNYNPSLKSRVTISVDTSKNQFSLKLSSVTAADTAVYYCARARGPWSFDPWGQGTLVTVSS VL: DIQMTQSPSTLSASVGDRVTITCRASQSIGSWLAWYQQKPGKAPKLLIYKASSLESGVPSRFSGSGSGTEFTLTISSLQPDDFATYYCQQYELYSYTFGGGTKVEIK	binds	binds	binds
ADI-29399 (antibody, V domains shown) VH: QVQLQQWGAGLLKPSETLSLTCAVYGGSFSGYYWSWIRQPPGKGLEWIGEIDHSGSTNYNPSLKSRVTISVDTSKNQFSLKLSSVTAADTAVYYCARARGPWSFDPWGQGTLVTVSS VL: not shown	binds	binds	binds
ADI-29425 (antibody, V domains shown) VH: QVQLQQWGAGLLKPSETLSLTCAVYGGSFSGYYWSWIRQPPGKGLEWIGEIDHSGSTNYNPSLKSRVTISVDTSKNQFSLKLSSVTAADTAVYYCARARGPWSFDPWGQGTLVTVSS VL: not shown	binds	binds	binds
ADI-29447 (antibody, V domains shown, also called F47) VH: QVQLQQWGAGLLKPSETLSLTCAVYGGSFSGYYWSWIRQPPGKGLEWIGEIDHSGSTNYNPSLKSRVTISVDTSKNQFSLKLSSVTAADTAVYYCARARGPWSFDPWGQGTLVTVSS VL: DIQMTQSPSTLSASVGDRVTITCRASQSISSWLAWYQQKPGKAPKLLIYKASSLESGVPSRFSGSGSGTEFTLTISSLQPDDFATYYCQQYDTFITFGGGTKVEIK	binds	binds	binds
ADI-27740 (antibody, V domains shown, also called A40) VH: QVQLQQWGAGLLKPSETLSLTCAVYGGSFSGYYWSWIRQPPGKGLEWIGEIDHSGSTNYNPSLKSRVTISVDTSKNQFSLKLSSVTAADTAVYYCARARGPWSFDPWGQGTLVTVSS VL: DIQMTQSPSTLSASVGDRVTITCRASQSIGSWLAWYQQKPGKAPKLLIYKASSLESGVPSRFSGSGSGTEFTLTISSLQPDDFATYYCQQYHSFYTFGGGTKVEIK	binds	binds	binds
ADI-27743 (antibody, V domains shown) VH: QVQLQQWGAGLLKPSETLSLTCAVYGGSFSGYYWSWIRQPPGKGLEWIGEIDHSGSTNYNPSLKSRVTISVDTSKNQFSLKLSSVTAADTAVYYCARARGPWSFDPWGQGTLVTVSS VL: not shown	binds	binds	binds

Continued, values first:

binding result [1]	binding result [2]	binding result [3]	Binder
binds	binds	binds	ADI-29419 (antibody, V domains shown) VH: QVQLQQWGAGLLKPSETLSLTCAVYGGSFSGYYWSWIRQPPGKGLEWIGEIDHSGSTNYNPSLKSRVTISVDTSKNQFSLKLSSVTAADTAVYYCARARGPWSFDPWGQGTLVTVSS VL: not shown
binds	binds	binds	ADI-29401 (antibody, V domains shown) VH: QVQLQQWGAGLLKPSETLSLTCAVYGGSFSGYYWSWIRQPPGKGLEWIGEIDHSGSTNYNPSLKSRVTISVDTSKNQFSLKLSSVTAADTAVYYCARARGPWSFDPWGQGTLVTVSS VL: DIQMTQSPSTLSASVGDRVTITCRASQSIGSWLAWYQQKPGKAPKLLIYKASSLESGVPSRFSGSGSGTEFTLTISSLQPDDFATYYCQQYDIYPTFGGGTKVEIK
binds	binds	binds	ADI-29407 (antibody, V domains shown) VH: QVQLQQWGAGLLKPSETLSLTCAVYGGSFSGYYWSWIRQPPGKGLEWIGEIDHSGSTNYNPSLKSRVTISVDTSKNQFSLKLSSVTAADTAVYYCARARGPWSFDPWGQGTLVTVSS VL: DIQMTQSPSTLSASVGDRVTITCRASQSISSWLAWYQQKPGKAPKLLIYKASSLESGVPSRFSGSGSGTEFTLTISSLQPDDFATYYCQQYQSFPTFGGGTKVEIK
binds	binds	binds	ADI-29404 (antibody, V domains shown, also called F04) VH: QVQLQQWGAGLLKPSETLSLTCAVYGGSFSGYYWSWIRQPPGKGLEWIGEIDHSGSTNYNPSLKSRVTISVDTSKNQFSLKLSSVTAADTAVYYCARARGPWSFDPWGQGTLVTVSS VL: DIQMTQSPSTLSASVGDRVTITCRASQSISSWLAWYQQKPGKAPKLLIYKASSLESGVPSRFSGSGSGTEFTLTISSLQPDDFATYYCEQYDSYPTFGGGTKVEIK
binds	binds	binds	ADI-29424 (antibody, V domains shown) VH: QVQLQQWGAGLLKPSETLSLTCAVYGGSFSGYYWSWIRQPPGKGLEWIGEIDHSGSTNYNPSLKSRVTISVDTSKNQFSLKLSSVTAADTAVYYCARARGPWSFDPWGQGTLVTVSS VL: DIQMTQSPSTLSASVGDRVTITCRASQSISSWLAWYQQKPGKAPKLLIYKASSLESGVPSRFSGSGSGTEFTLTISSLQPDDFATYYCQQYDSFITFGGGTKVEIK
binds	binds	binds	ADI-27727 (antibody, V domains shown) VH: QVQLVQSGAEVKKPGSSVKVSCKASGGTFSSYAISWVRQAPGQGLEWMGGIIPIFGTANYAQKFQGRVTITADESTSTAYMELSSLRSEDTAVYYCARGDSSIRHAYYYYGMDVWGQGTTVTVSS VL: not shown
